The data set in a line: label from the status in PepcDB records.
Consider “MASTIQALPQEVVYLITAGEVIDSFAAVVRELVENSLDAGANRIVVYLWPQQWRVRVADNGCGMNLDDLQQAASAHSTSKIRSSADLWKIHSLGFRGEALHSLTTLADVEIISRAPENVGWRVVYGDSGKAVHVEATAIAPGTVVTVSNLFASCAARRQGLPTTAQQMKAVQATIQQIALCHPQTTWQVWQNDRIWFTISPAATAGQLIPQFLPQLRPSDLQEIKLEIPNPENPQLSTNNKPNASALALVVGLPDRCHRHRPDWVRVAINGRMIKLPELEQTILAAFHRTLPRDRYPLCFVHLLISPDQINWNRNPAKTEIYLHDLSYWQEQVTQAINQALRISAANIPESVQTTRVSQLLKAAEEKGNYNFNPRNANPADNTQNYLKAVAQVSNTYIVAEHPGGMWLVEQHIAHERVLYEQLCDNWRLIPVEPPIILYQLSPAQVAQLQRIGLDIDIFGEQLWAVRNLPAMLQQREDCAEAILELSWGGDLQTAQVAVACRSAIRNGTPMSLPEMQKLLDDWQRTRNPRTCPHGRPIYLSLDESSLSRFFRRHWVIGKSHGI”, for which the protein production entry is recorded as “failed”.
Turning to “MISMKEEIKKVIEETGLPIITDEKSGAAQWVDLRELRLSYIISVENIKPFYEGLKEGKLLGTKCKKCGRLFFPPQKDCPSCFDSDIEWVELKNEGTLETMTVVFVRPPSFSAYDPYPVAIAKLDDGPRILAWYKGDPQQAKPGMRVKIQVGKRKEGYLMYEIAPALEHHHHHH”, the protein production entry was “failed”.
Under “MKQPFERILREICFMVKVEGRKVLRDFGITPAQFDILQKIYFEGPKRPGELSVLLGVAKSTVTGLVKRLEADGYLTRTPDPADRRAYFLVITRKGEEVIEKVIERRENFIEKITSDLGKEKSSKILDYLKELKGVMERNFSKQ” stands “not failed”; under “MTKMNRETVITEALDLLDEVGLDGVSTRRLAKRLGVEQPSLYWYFRTKRDLLTAMAQAAMAPHAAEPLPEPGEDWHGWFLRNTRSFRRTLLARRDGARLHAGSRPTADLDRVRRKMDFLVASGVPERHAQMAMLAAGRFTVGCVLEEQAETGAGDTADLPADVPEIDHESAFEAGLALITDGLVRHVDAR”, “not failed”.
Consider “MKSYQPKSLLNDLQYYITPPHDCSYLDNKSARMVFLDPIHRIDVVTLSELSRVGFRRSGDFVYRPECHLCRQCLSCRVPVHDFNMNSLQKKAWKRNQDLRMSIVPTHAATSVHYQLYERYINERHADGDMFPPSLDQFEKFLVHSCTESFFLELWKDDRLICVSTCDLMDDGLSAVYTFFDPDENRRSLGVFAILKQLEYVKSIDLDYLYLGYWVPHSQKMNYKSQYIPLELLLDGQWRRLNRALSQEEISQLGESLMTILPSEWNSMIIKLEHHHHHH”, for which the protein production entry is “failed”.
For “MNEQPAACRIKVEALGAGFAPAAEQWAERLGLALQVDEAEFALQVGEQGLQLQQLGPDAPGPVRVDFVEGGAAHRRLYGGGSGQMIAKAVGVAQGVRPRVLDATAGLGKDGFVLATLGCEMSLIERQPLIGALLEDGLARAAQDAEVGPIVARMHLLKGNSIELMRNWQGEPPQVIYLDPMFPHREKSALVKKEMRLFRPLVGDDNDAPALLAAALALASHRVVVKRPRKAPCIEGPKPSHGLEGKSSRYDIYPKKALKALEHHHHHH”, the protein production entry was “failed”.
With “MVSSLFINPFSEDAREIVRKYGSLDTIDDTRDELLEIGRRTRGQNLADNSLLPASIAELAVKRLEWYLRRQRKDFNHRDYAYLMNPEIEEYDVLAFYILAQAAGAGFMKASREARLVVESAGAMVEDRLNVFGGEREEIMAEVLYELGSEGLRWTELADLLGSGKLKLTDLILKEGRVIIDRDEFITSFQDSIRDRSPDRLYDILVGLEVRETMISRMIMQRTEEYIGMVREMSSTVEVHPLILETAERIRETVEEIMSFTGGPVKSARPGKLVQEAFPPCIRGTLDGVRSGNRNDAIVLLLTSFISYARLYPSVFRDRTPMKVSDLDPDLRITLGEILPVIYDAADRCEPPLFEDDPQEKLNITAKLGFGVHDMPELENEGESKWYTPMSCEKIKIHLPDLCRPDKLCSSISNPLTYYNRKRWKLRSSGEKEELEHHHHHH”, the protein production result is given as “not failed”.
Take “MVDYHYFKSKLNHFYGRYVGYNQRPVFFDIDQTFPELNHITRHFPDIKREFENVQANVKEFPRYHDIDPGESAISNTTEKNWNVFMLYLLGYQLKEARLLCPELCNLLEGIPHLIQAFFSILEPGKSIPLHEGPYIGYLRYHLGIHVPQNNPPQILVNNQTYTWKEGEAVLFDDSWPHEVRNTSDDYRAVLIIDVLRPMPFLPQLVNQFVTHVIARYFYGRKVMKRAMQYGGEVKPLALLEHHHHHH”: the protein production entry was “failed”.
Under “MNDSIKKINYLFICLFIFLNPLIPYNVKIHNNITVSDILLLVIFVLFLVEILRNRQKLKECFYIMLGDKTLFCLILLFIVMMISVTYAKEKPLALEESLRFFCYIGLYIILSLSYREEKHFKGFVTSFVASVTLISIIGIFQKITGMGIPHQYDYKVNGVTMVRVAAVFGNPNTLAAFMILSIFPIVMFAFFEKNLKKKAFYSILSVLIVYNAALTGSRNSYMGLALGFCVLALIYSIKLILPIIVLGGASMFLPQVTSRLRSIDNKNLNDARIKLWKTALKMIKDHPLSGVGNGNYIANYDAYVKQYPELRYADYSRFPVHNSYLKIESELGIFGGIFFVATIVNVFLKLYNTYKKTDIKIKKAFYLGFIASTSAFLFMNFSDNLLFVPSITSFFWMFVAIGDRH” stands “failed”; under “MVLTSGAGASLVLLNTFSEIYMRISTRVIGGALIATLLTQLTACGTIFYPDRRGQIGGKIDPVVAAMDAIGILFYVIPGLIAFGIDFATGAIYYPGGRTAQVDPAKLQEAVSPDGKVDNLKLQAILESELGQRLPLNDPRLIQHRGSIEQLASLGLVPAA”, “failed”; under “MSPIEKSSKLENVCYDIRGPVLKEAKRLEEEGNKVLKLNIGNPAPFGFDAPDEILVDVIRNLPTAQGYCDSKGLYSARKAIMQHYQARGMRDVTVEDIYIGNGVSELIVQAMQALLNSGDEMLVPAPDYPLWTAAVSLSSGKAVHYLCDESSDWFPDLDDIRAKITPRTRGIVIINPNNPTGAVYSKELLMEIVEIARQHNLIIFADEIYDKILYDDAEHHSIAPLAPDLLTITFNGLSKTYRVAGFRQGWMVLNGPKKHAKGYIEGLEMLASMRLCANVPAQHAIQTALGGYQSISEFITPGGRLYEQRNRAWELINDIPGVSCVKPRGALYMFPKIDAKRFNIHDDQKMVLDFLLQEKVLLVQGTAFNWPWPDHFRIVTLPRVDDIELSLSKFARFLSGYHQL”, “failed”.
For the sequence “NQLIRGRLVVGMVTACTVKPLFDALSAFHVAHPGIEITLTEDSSDRLVERVRAGAIDLALVGTATAPPDGLDAFPIISEGLVAAVPPGHPLAGRSRVTLAELGDHAIVCMPTGTGIRTVFDQACAAAGLRPDIALQASAPDAVADLAIRG”, the protein production entry was “failed”.
“MPALITYRTTVQEDWVDYNGHLRDAFYLLIFSYATDALMDRIGLDADSRGQSGNSLFTLEAHINYLHEVKLGTEVWVQTQILGFDRKRLHVYHSLHRAGFDEVLAASEQMLLHVDLAGPQSAPFGHTTVCRLNHLVEQQEGAQAPQYMGRTIKLPA”: the protein production result was “not failed”.
In the case of “MEPNIYQLALAALFGASFVAVSGFFMHFKALNLVLERGKERKENPDGDEPQNPTLVRRRSQVRRKVNDQYGRSPASLPDATPFTDGGGGGGGDTGRSNGHVYVDEIPPGLPRLHTPSEGRASVHGASSIRKTGSFVRPISPKSPVASASAFESVEESDDDDNLTNSEGLDASYLQANGDNEMPADANEEQISMAASSMIRSHSVSGDLHGVQPDPIAADILRKEPEQETFVRLNVPLEVPTSDEVEAYKCLQECLELRKRYVFQETVAPWEKEVISDPSTPKPNTEPFAHYPQGKSDHCFEMQDGVVHVFANKDAKEDLFPVADATAFFTDLHHVLKVIAAGNIRTLCHRRLVLLEQKFNLHLMLNADKEFLAQKSAPHRDFYNVRKVDTHVHHSACMNQKHLLRFIKSKLRKEPDEVVIFRDGTYLTLREVFESLDLTGYDLNVDLLDVHADKSTFHRFDKFNLKYNPCGQSRLREIFLKQDNLIQGRFLGEITKQVFSDLEASKYQMAEYRISIYGRKMSEWDQLASWIVNNDLYSENVVWLIQLPRLYNIYKDMGIVTSFQNILDNIFIPLFEATVDPDSHPQLHVFLKQVVGFDLVDDESKPERRPTKHMPTPAQWTNAFNPAFSYYVYYCYANLYVLNKLRESKGMTTITLRPHSGEAGDIDHLAATFLTCHSIAHGINLRKSPVLQYLYYLAQIGLAMSPLSNNSLFLDYHRNPFPVFFLRGLNVSLSTDDPLQIHLTKEPLVEEYSIAASVWKLSACDLCEIARNSVYQSGFSHALKSHWIGKDYYKRGPDGNDIHKTNVPHIRVEFRDTIWKEEMQQVYLGKAVISDEVVP”, the protein production entry is reported as “not failed”.

(Values after a protein production outcome set (Wang et al. 2014).)
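Also: failed if final PepcDB status was selected cloned or expressed and not failed if soluble or beyond.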
